Test [1] addresses cynomolgus monkey SEZ6, ectopically expressed on 293T cells (Macaca fascicularis, UniProt A0A2K5WPJ4). The experiment in a line: flow cytometry on cells.
Test [2] addresses murine SEZ6, ectopically expressed on 293T cells (Mus musculus (Mouse)., UniProt Q7TSK2). The experiment in a line: flow cytometry on cells. For orientation: A flow cytometer gives signals particle by particle.

Chain of murine SEZ6, ectopically expressed on 293T cells (Q7TSK2 20-991): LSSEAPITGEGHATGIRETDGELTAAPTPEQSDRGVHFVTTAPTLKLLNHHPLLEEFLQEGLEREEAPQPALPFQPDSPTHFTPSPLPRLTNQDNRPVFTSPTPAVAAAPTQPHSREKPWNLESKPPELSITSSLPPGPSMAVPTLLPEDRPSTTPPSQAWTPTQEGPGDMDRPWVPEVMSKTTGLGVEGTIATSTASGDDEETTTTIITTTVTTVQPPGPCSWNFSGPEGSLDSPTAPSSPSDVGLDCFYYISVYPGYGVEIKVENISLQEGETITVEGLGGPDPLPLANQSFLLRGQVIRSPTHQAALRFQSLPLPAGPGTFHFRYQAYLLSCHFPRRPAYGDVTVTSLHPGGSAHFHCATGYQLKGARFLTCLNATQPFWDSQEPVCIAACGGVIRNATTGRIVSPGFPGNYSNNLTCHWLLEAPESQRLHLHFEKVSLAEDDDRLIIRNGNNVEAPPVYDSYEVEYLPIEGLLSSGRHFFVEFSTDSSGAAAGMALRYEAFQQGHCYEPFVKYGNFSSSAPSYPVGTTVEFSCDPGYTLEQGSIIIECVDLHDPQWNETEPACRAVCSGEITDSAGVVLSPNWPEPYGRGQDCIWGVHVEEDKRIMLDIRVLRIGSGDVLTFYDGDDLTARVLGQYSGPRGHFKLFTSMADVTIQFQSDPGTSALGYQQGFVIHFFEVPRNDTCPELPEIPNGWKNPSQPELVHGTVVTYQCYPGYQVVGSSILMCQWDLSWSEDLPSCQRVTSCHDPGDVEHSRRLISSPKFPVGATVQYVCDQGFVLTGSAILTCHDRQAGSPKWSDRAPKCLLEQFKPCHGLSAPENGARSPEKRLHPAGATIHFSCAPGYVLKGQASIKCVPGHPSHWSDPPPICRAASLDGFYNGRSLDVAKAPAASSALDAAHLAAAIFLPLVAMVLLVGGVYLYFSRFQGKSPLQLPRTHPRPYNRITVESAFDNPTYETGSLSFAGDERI

B1: ABBV-011 (SC17 conjugated to the calicheamicin linker drug LD19.10) (antibody, V domains shown)
VH: EVQLVQSGAEVKKPGESLKISCKGSGYSFTSSWINWVRQMPGKGLEWMGRIYPGEGDTNYSGNFEGQVTISADKSISTAYLQWSSLKASDTAMYYCTRGLVMDYWGQGTLVTVSS
VL: EIVLTQSPATLSLSPGERATLSCRASQSVDYNGISYMHWYQQKPGQAPRLLIYAASNVQSGIPARFSGSGSGTDFTLTISSLEPEDFAVYYCQQSIEDPPTFGGGTKVEIK
For B1, the binding result in test [1] and in test [2] was “binds” in each case.

B2: SC17, humanized anti-SEZ6 monoclonal antibody (antibody, V domains shown)
VH: B1 VH
VL: B1 VL
Regarding B2, the binding result in test [1] is on record as “binds”.

For the origin of these results see paper PMC9381089 (Molecular Cancer Therapeutics, 2022).
